Data taken from US9969998B2, “Compositions of adenosine deaminase-2 (ADA2), variants thereof and methods of using same” (Halozyme, Inc., priority 2014, dated 2018).
Substitutions are numbered along the chain they refer to. Numbers in names are those of the source. Entries after “also recorded” stand apart in the source; their conditions may differ.

B1: ADA2: wild-type human adenosine deaminase 2, mature form SEQ ID NO:5, homodimer (protein, listed as Homo sapiens)
chain: IDETRAHLLLKEKMMRLGGRLVLNTKEELANERLMTLKIAEMKEAMRTLIFPPSMHFFQAKHLIERSQVFNILRMMPKGAALHLHDIGIVTMDWLVRNVTYRPHCHICFTPRGIMQFRFAHPTPRPSEKCSKWILLEDYRKRVQNVTEFDDSLLRNFTLVTQHPEVIYTNQNVVWSKFETIFFTISGLIHYAPVFRDYVFRSMQEFYEDNVLYMEIRARLLPVYELSGEHHDEEWSVKTYQEVAQKFVETHPEFIGIKIIYSDHRSKDVAVIAESIRMAMGLRIKFPTVVAGFDLVGHEDTGHSLHDYKEALMIPAKDGVKLPYFFHAGETDWQGTSIDRNILDALMLNTTRIGHGFALSKHPAVRTYSWKKDIPIEVCPISNQVLKLVSDLRNHPVATLMATGHPMVISSDDPAMFGAKGLSYDFYEVFMGIGGMKADLRTLKQLAMNSIKYSTLLESEKNTFMEIWKKRWDKFIADVATK
modifications: ADA2 mature protein
B2: PEG-K374D: rHuADA2-K374D (SEQ ID NO:20) PEGylated on surface exposed lysines with linear PEG-20K (conjugate)
chain: B1 chain with K371D
modifications: linear PEG-20K on surface lysines; human ADA2 K371D, mature numbering

Experiments:
[1] = Adenosine deaminase (ADA) activity assay; format: biochemical
Text: The adenosine deaminase (ADA; EC 3.5.4.4) activity of any of the ADA2 described herein, including a wildtype, variant or conjugate, can be assessed using methods well known in the art. ADA activity assays commonly measure, directly or indirectly, the rate of production a product of the enzymatic reaction. For example, the production of inosine or ammonia can be directly or indirectly measured. In other examples, the decrease of the substrate of the enzyme, e.g., adenosine or 2-deoxyadenosine, is measured. The decrease of the substrate, or the increase of the product, can be measured directly by spectrophotometry, or indirectly, by subsequent enzymatic or oxidation-reduction reactions that use chromogenic substrates or change the absorbance spectra of the reaction.
For example, some commercially available adenosine deaminase (ADA) assays, such as ADA assay kits available from BQ Kits (San Diego, Calif.; Cat. No. BQ014EALD) and Diazyme (Poway, C A; Cat. No. DZ117A-K), utilize colorimetric substrate and spectrophotometric reading to determine the conversion of adenosine to inosine by ADA enzymes. In these assays, the production of inosine is detected by multi-step enzymatic reactions that produce a chromogenic dye. […] The change in absorbance at 556 nm (ΔA556) over time, at 37° C., is measured. […]

[2] = Stability of ADA activity in plasma; format: in vitro ADME, mouse; conditions: long incubation (e.g., 24 hours) in plasma
Protocol: For therapeutic uses, such as for treatment of tumors or cancers, it is desirable to administer to the subject a dosage of ADA2 that will maintain plasma adenosine deaminase (ADA) activity for a sufficient time for therapeutic effect. […] The plasma stability of any ADA2 described herein, such as a wildtype, variant or conjugate, can be determined by measuring the changes in enzymatic activity and/or other physical properties, before and after incubation in plasma, e.g., ex vivo mammalian plasma.
Stability can be assessed in vitro or in vivo. For example, stability can be tested after exposure to plasma for a desired length of time, which can be empirically determined or selected by a skilled artisan depending on the desired length of time. For example, the incubation time can be at least 1 hour, such as at least 2, 3, 4, 5, 10, 15, 20, 24, 30, 36, 48, 60, 72 hours or more. The protein can be directly administered systemically, such as intravenously, and activity can be assessed. In other examples, the protein can be subject to appropriate incubation conditions in vitro. In one example, the stability of ADA activity of any ADA2 provided herein can be measured after incubation at 37° C., in 25% ex vivo plasma or serum, such as human or non-human plasma or serum, for example, mouse plasma. […]

[3] = adenosine deaminase activity; listed as wildtype ADA2; cited from earlier work
[4] = test system: KLN205 murine lung cancer tumor; experiment: Tumor growth inhibition of combination therapy with anti-PD-1, KLN205 syngeneic tumor model; format: in vivo, DBA/2 mice; conditions: study day 14, PEG-K374D 0.3 mg/kg IV biweekly, α-PD-1 2 mg/kg IP biweekly
Protocol: KLN205 syngeneic tumor models were produced by injecting thirty-two (32) DBA/2 mice with 5×10^5 KLN205 murine lung cancer tumor cells (ATCC CRL-1453), in 0.1 mL injection volume per animal, subcutaneously. Tumor bearing mice were staged into treatment groups when the average tumor size reached approximately 100 mm^3.
For treatment, animals were randomized into 4 groups (n=8/group): 1) saline vehicle control, 2) PEG-K374D, 3) α-PD-1 antibody (Clone RMP1-14, Cat. No. BE0146; BioXCell, West Lebanon, N.H.), or 4) PEG-K374D+α-PD-1. PEG-K374D was dosed intravenously biweekly at 0.3 mg/kg, and α-PD-1 was dosed intraperitoneally biweekly at 2 mg/kg). The sequence of dosing in the combination group was PEG-K374D immediately followed by α-PD-1.
where “Tn” is the average tumor volume for the treatment group at day “n” after the final dose of PEG-K374D and α-PD-1 or control; “T0” is the average tumor volume in that treatment group at day 0, before treatment; “Cn” is the average tumor volume for the corresponding control group at day “n”; and “C0” is the average tumor volume in the control group at day 0, before treatment.

Row | Molecule | Km of ADA2 for adenosine relative to that of ADA1 [1] | stability in plasma [2] | pH optimum [3] | Average Tumor Volume [4] | Tumor Growth Inhibition [4] | Tumor Growth Inhibition ([4]; vs vehicle)
1 | B1 | approximately 100 times | more stable than ADA1 | ~6.5 | – | – | –
2 | B2 | – | – | – | 264.56 mm^3 | inhibited tumor growth; also recorded: greater tumor growth inhibition than either α-PD-1 treatment alone or the PEG-K374D+α-PD-1 combination therapy | 78%
